Test results: IntAct's records for PubMed 31515488

B1: E3 ubiquitin-protein ligase TRIM39 (Homo sapiens), Q9HCM9 (parent)
chain: MAETSLLEAGASAASTAAALENLQVEASCSVCLEYLKEPVIIECGHNFCKACITRWWEDLERDFPCPVCRKTSRYRSLRPNRQLGSMVEIAKQLQAVKRKIRDESLCPQHHEALSLFCYEDQEAVCLICAISHTHRAHTVVPLDDATQEYKEKLQKCLEPLEQKLQEITRCKSSEEKKPGELKRLVESRRQQILREFEELHRRLDEEQQVLLSRLEEEEQDILQRLRENAAHLGDKRRDLAHLAAEVEGKCLQSGFEMLKDVKSTLEKNIPRKFGGSLSTICPRDHKALLGLVKEINRCEKVKTMEVTSVSIELEKNFSNFPRQYFALRKILKQLIADVTLDPETAHPNLVLSEDRKSVKFVETRLRDLPDTPRRFTFYPCVLATEGFTSGRHYWEVEVGDKTHWAVGVCRDSVSRKGELTPLPETGYWRVRLWNGDKYAATTTPFTPLHIKVKPKRVGIFLDYEAGTLSFYNVTDRSHIYTFTDTFTEKLWPLFYPGIRAGRKNAAPLTIRPPTDWE
B2: Serine/threonine-protein kinase PAK 5 (Homo sapiens), Q9P286 (parent)
chain: MFGKKKKKIEISGPSNFEHRVHTGFDPQEQKFTGLPQQWHSLLADTANRPKPMVDPSCITPIQLAPMKTIVRGNKPCKETSINGLLEDFDNISVTRSNSLRKESPPTPDQGASSHGPGHAEENGFITFSQYSSESDTTADYTTEKYREKSLYGDDLDPYYRGSHAAKQNGHVMKMKHGEAYYSEVKPLKSDFARFSADYHSHLDSLSKPSEYSDLKWEYQRASSSSPLDYSFQFTPSRTAGTSGCSKESLAYSESEWGPSLDDYDRRPKSSYLNQTSPQPTMRQRSRSGSGLQEPMMPFGASAFKTHPQGHSYNSYTYPRLSEPTMCIPKVDYDRAQMVLSPPLSGSDTYPRGPAKLPQSQSKSGYSSSSHQYPSGYHKATLYHHPSLQSSSQYISTASYLSSLSLSSSTYPPPSWGSSSDQQPSRVSHEQFRAALQLVVSPGDPREYLANFIKIGEGSTGIVCIATEKHTGKQVAVKKMDLRKQQRRELLFNEVVIMRDYHHDNVVDMYSSYLVGDELWVVMEFLEGGALTDIVTHTRMNEEQIATVCLSVLRALSYLHNQGVIHRDIKSDSILLTSDGRIKLSDFGFCAQVSKEVPKRKSLVGTPYWMAPEVISRLPYGTEVDIWSLGIMVIEMIDGEPPYFNEPPLQAMRRIRDSLPPRVKDLHKVSSVLRGFLDLMLVREPSQRATAQELLGHPFLKLAGPPSCIVPLMRQYRHH
partner: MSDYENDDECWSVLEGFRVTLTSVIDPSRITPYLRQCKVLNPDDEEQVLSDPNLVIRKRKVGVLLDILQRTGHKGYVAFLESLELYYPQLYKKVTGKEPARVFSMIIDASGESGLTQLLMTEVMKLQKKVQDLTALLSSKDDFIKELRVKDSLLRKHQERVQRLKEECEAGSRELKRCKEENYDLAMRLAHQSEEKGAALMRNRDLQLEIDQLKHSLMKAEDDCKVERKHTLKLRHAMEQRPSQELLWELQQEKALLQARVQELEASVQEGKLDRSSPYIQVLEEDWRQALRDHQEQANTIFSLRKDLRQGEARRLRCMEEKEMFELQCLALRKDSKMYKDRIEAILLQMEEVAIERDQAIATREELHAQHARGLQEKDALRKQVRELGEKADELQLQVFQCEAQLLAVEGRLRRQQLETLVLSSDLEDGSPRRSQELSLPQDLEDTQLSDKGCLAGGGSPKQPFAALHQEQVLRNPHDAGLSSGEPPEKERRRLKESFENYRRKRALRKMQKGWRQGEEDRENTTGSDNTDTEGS
B3: Septin-12 (Homo sapiens), Q8IYM1 (parent)
chain: MDPLRRSPSPCLSSQPSSPSTPPCEMLGPVGIEAVLDQLKIKAMKMGFEFNIMVVGQSGLGKSTMVNTLFKSKVWKSNPPGLGVPTPQTLQLHSLTHVIEEKGVKLKLTVTDTPGFGDQINNDNCWDPILGYINEQYEQYLQEEILITRQRHIPDTRVHCCVYFVPPTGHCLRPLDIEFLQRLCRTVNVVPVIARADSLTMEEREAFRRRIQQNLRTHCIDVYPQMCFDEDINDKILNSKLRDRIPFAVVGADQEHLVNGRCVLGRKTKWGIIEVENMAHCEFPLLRDLLIRSHLQDLKDITHNIHYENYRVIRLNESHLLPRGPGWVNLAPASPGQLTTPRTFKVCRGAHDDSDDEF
partner: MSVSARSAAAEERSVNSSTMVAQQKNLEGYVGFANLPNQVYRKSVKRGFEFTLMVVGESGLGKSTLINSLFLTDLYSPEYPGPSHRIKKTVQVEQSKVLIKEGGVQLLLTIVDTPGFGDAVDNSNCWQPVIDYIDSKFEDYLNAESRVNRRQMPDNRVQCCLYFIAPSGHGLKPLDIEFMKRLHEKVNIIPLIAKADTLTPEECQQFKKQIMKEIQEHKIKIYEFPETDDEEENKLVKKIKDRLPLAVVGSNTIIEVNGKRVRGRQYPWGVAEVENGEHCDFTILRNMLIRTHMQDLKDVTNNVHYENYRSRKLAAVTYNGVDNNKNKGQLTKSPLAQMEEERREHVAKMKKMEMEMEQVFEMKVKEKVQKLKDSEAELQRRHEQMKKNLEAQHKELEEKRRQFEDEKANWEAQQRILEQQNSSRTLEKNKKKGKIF
B4: Cancer/testis antigen 2 (Homo sapiens), O75638 (parent)
chain: MQAEGRGTGGSTGDADGPGGPGIPDGPGGNAGGPGEAGATGGRGPRGAGAARASGPRGGAPRGPHGGAASAQDGRCPCGARRPDSRLLELHITMPFSSPMEAELVRRILSRDAAPLPRPGAVLKDFTVSGNLLFMSVRDQDREGAGRMRVVGWGLGSASPEGQKARDLRTPKHKVSEQRPGTPGPPPPEGAQGDGCRGVAFNVMFSAPHI
B5: UPF0488 protein C8orf33 (Homo sapiens), Q9H7E9 (parent)
chain: MAALGHLAGEAAAAPGPGTPCASRGARLPGPVSSARNPSTVCLCPEQPTCSNADSRAHPLGDEGGTASKKQKNKKKTRNRASVANGGEKASEKLAPEEVPLSAEAQAQQLAQELAWCVEQLELGLKRQKPTPKQKEQAIGAIRTLRSKRTPLPRKRQLMHSLFGDYRAQMEAEWREALRALRAAAYSAQVQPVDGATRKKSQRVCRPRSIWRAKATLDMPDEEFRFNFF
B6: Zinc finger protein 774 (Homo sapiens), Q6NX45 (parent)
chain: MWLGTSGKSGLPGHCLENPLQECHPAQLEEWALKGISRPSVISQPEQKEEPWVLPLQNFEARKIPRESHTDCEHQVAKLNQDNSETAEQCGTSSERTNKDLSHTLSWGGNWEQGLELEGQHGTLPGEGQLESFSQERDLNKLLDGYVGEKPMCAECGKSFNQSSYLIRHLRTHTGERPYTCIECGKGFKQSSDLVTHRRTHTGEKPYQCKGCEKKFSDSSTLIKHQRTHTGERPYECPECGKTFGRKPHLIMHQRTHTGEKPYACLECHKSFSRSSNFITHQRTHTGVKPYRCNDCGESFSQSSDLIKHQRTHTGERPFKCPECGKGFRDSSHFVAHMSTHSGERPFSCPDCHKSFSQSSHLVTHQRTHTGERPFKCENCGKGFADSSALIKHQRIHTGERPYKCGECGKSFNQSSHFITHQRIHLGDRPYRCPECGKTFNQRSHFLTHQRTHTGEKPFHCSKCNKSFRQKAHLLCHQNTHLI
partner: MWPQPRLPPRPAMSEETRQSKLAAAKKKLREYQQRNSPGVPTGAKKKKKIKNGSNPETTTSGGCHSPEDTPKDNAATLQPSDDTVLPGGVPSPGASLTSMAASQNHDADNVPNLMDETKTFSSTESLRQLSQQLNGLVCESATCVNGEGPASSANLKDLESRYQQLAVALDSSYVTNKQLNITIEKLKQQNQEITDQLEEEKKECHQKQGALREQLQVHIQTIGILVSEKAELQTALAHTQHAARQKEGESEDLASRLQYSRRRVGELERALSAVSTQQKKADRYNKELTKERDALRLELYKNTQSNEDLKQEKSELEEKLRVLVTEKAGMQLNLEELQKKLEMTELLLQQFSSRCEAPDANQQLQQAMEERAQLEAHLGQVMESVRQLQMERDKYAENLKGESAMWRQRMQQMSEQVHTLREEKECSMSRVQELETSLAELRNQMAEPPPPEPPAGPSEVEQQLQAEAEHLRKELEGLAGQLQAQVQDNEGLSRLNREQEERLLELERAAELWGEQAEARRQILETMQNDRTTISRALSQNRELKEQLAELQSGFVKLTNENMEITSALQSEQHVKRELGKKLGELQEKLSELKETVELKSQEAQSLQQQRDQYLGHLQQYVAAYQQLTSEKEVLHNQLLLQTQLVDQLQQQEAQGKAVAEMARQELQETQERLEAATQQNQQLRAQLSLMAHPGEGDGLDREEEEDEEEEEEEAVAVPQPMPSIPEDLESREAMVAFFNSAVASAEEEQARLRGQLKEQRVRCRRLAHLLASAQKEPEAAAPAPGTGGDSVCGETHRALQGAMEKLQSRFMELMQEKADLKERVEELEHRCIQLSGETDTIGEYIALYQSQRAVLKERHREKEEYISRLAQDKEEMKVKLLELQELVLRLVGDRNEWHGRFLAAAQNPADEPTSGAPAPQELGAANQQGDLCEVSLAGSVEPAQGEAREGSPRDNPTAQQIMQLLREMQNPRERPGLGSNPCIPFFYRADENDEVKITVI

Variants of: B1
Details: with znf26_human ZNF26, P17031
Sequence of znf26_human ZNF26, P17031 (P17031 whole entry): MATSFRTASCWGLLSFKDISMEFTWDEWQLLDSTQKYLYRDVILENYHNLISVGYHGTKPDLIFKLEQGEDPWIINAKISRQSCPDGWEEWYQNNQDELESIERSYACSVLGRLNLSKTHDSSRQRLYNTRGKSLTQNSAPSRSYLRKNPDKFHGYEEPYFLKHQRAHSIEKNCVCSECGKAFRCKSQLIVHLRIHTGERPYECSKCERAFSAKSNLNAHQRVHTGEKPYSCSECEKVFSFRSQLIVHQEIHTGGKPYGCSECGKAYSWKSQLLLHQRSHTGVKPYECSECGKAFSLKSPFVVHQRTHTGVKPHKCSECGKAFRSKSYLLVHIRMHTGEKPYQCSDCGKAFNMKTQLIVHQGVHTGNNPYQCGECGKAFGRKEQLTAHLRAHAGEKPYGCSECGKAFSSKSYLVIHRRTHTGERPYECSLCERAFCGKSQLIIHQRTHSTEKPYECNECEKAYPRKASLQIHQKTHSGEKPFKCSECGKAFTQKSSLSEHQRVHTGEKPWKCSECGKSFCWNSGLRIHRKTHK

Row | effect of a mutation on the interaction | Variant
1 | disrupting interaction strength | L194S

Variants of: B1
Details: with ccnc_human CCNC

Row | effect of a mutation on the interaction | Variant
2 | disrupting interaction strength | L194S

Variants of: B1
Details: with if4a2_human EIF4A2, Q14240
Sequence of if4a2_human EIF4A2, Q14240 (Q14240 whole entry): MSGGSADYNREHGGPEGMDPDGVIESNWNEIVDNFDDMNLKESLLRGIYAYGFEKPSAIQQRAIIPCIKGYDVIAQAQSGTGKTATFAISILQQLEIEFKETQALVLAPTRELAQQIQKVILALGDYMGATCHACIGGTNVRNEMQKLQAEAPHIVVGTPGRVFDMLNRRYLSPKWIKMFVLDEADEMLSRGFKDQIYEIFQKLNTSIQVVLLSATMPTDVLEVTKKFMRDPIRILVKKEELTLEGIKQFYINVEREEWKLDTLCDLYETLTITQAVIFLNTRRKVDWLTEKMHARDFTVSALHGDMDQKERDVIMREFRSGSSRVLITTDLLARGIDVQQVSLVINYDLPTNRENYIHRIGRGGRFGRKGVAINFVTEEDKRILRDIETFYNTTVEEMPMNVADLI

Row | effect of a mutation on the interaction | Variant
3 | disrupting interaction strength | L194S

Variants of: B1
Details: with ub2e2_human UBE2E2, Q96LR5
Sequence of ub2e2_human UBE2E2, Q96LR5 (Q96LR5 whole entry): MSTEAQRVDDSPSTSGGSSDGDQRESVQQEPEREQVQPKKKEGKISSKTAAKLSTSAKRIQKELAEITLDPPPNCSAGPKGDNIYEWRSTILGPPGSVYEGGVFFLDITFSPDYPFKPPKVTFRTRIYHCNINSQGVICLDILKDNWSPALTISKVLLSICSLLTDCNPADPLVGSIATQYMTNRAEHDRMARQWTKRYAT

Row | effect of a mutation on the interaction | Variant
4 | disrupting interaction strength | L194S

Variants of: B1
Details: with ub2d3_human UBE2D3, P61077
Sequence of ub2d3_human UBE2D3, P61077 (P61077 whole entry): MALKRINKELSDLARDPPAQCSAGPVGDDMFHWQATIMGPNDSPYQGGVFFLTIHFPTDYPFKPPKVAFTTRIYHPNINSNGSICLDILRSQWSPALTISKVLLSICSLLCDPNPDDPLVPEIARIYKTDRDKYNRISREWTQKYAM

Row | effect of a mutation on the interaction | Variant
5 | disrupting interaction strength | L194S

Variants of: B2
Details: with card9_human CARD9, Q9H257

Row | effect of a mutation on the interaction | Variant
6 | with no effect | R335P

Variants of: B3
Details: with sept7_human SEPTIN7, Q16181

Row | effect of a mutation on the interaction | Variant
7 | disrupting interaction strength | D197N
8 | disrupting interaction strength | G169E

Variants of: B4
Details: with ubql1_human UBQLN1, Q9UMX0
Sequence of ubql1_human UBQLN1, Q9UMX0 (Q9UMX0 whole entry): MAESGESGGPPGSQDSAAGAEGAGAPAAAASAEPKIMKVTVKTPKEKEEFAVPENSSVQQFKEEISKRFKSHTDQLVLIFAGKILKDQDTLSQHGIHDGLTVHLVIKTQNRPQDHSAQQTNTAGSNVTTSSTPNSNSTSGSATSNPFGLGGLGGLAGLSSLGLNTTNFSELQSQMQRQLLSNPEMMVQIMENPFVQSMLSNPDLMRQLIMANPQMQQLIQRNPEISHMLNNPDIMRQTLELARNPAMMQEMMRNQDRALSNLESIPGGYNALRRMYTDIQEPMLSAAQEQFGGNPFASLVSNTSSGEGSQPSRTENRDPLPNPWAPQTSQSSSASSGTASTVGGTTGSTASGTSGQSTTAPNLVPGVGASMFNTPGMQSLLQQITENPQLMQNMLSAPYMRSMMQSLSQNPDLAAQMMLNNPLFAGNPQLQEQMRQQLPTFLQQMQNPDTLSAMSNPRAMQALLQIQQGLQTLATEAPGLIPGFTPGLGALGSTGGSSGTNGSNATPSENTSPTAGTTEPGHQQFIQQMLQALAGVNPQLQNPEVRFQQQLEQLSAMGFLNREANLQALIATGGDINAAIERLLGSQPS

Row | effect of a mutation on the interaction | Variant
9 | with no effect | A80T

Variants of: B4
Details: with trip6_human TRIP6, Q15654
Sequence of trip6_human TRIP6, Q15654 (Q15654 whole entry): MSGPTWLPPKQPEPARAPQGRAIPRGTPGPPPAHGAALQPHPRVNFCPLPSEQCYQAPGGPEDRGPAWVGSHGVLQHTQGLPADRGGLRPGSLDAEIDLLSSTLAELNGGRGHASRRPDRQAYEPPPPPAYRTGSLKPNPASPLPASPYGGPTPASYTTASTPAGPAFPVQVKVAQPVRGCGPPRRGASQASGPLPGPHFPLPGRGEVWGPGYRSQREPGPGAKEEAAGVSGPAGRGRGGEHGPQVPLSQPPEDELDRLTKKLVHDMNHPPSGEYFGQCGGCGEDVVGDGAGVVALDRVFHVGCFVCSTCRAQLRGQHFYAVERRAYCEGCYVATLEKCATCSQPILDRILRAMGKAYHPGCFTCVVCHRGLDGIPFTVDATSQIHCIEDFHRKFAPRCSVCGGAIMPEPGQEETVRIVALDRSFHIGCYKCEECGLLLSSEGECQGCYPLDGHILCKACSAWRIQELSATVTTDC

Row | effect of a mutation on the interaction | Variant
10 | with no effect | A80T

Variants of: B5
Details: with ldoc1_human LDOC1, O95751
Sequence of ldoc1_human LDOC1, O95751 (O95751 whole entry): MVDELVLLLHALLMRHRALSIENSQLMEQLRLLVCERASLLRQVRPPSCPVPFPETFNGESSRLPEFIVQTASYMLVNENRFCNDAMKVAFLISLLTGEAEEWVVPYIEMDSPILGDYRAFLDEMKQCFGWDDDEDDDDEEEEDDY

Row | effect of a mutation on the interaction | Variant
11 | with no effect | G25R

Variants of: B5
Details: with cep70_human CEP70, Q8NHQ1
Sequence of cep70_human CEP70, Q8NHQ1 (Q8NHQ1 whole entry): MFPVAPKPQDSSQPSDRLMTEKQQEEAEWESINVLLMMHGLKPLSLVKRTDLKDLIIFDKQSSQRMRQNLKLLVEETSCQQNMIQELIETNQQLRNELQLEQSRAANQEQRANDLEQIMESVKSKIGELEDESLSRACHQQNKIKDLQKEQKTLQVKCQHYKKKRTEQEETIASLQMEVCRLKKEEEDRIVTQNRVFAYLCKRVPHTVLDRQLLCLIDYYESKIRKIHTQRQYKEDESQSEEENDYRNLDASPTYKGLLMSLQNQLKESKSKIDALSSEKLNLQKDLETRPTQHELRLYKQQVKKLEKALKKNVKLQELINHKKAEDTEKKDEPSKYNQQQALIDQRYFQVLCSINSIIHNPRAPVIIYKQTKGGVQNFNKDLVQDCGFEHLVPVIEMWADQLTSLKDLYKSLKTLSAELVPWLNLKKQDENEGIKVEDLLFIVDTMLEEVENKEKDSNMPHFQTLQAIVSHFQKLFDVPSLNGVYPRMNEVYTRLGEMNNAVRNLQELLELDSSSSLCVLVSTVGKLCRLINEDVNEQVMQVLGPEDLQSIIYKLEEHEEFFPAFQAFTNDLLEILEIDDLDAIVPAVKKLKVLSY

Row | effect of a mutation on the interaction | Variant
12 | with no effect | G25R

Variants of: B6
Details: with goga2_human GOLGA2, Q08379

Row | effect of a mutation on the interaction | Variant
13 | with no effect | P65L
